The assay has as its target Concanavalin A (Canavalia ensiformis, UniProt P02866). The assay is described as follows: spectral shift (thermal shift in results).

Consider one molecule from publication PMC11839208 (2025).

Chain of Concanavalin A (P02866 30-148, chain 1 of 2): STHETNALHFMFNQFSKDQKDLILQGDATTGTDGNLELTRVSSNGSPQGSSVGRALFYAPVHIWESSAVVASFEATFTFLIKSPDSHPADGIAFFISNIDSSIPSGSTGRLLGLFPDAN
Chain of Concanavalin A (P02866 164-281, chain 2 of 2): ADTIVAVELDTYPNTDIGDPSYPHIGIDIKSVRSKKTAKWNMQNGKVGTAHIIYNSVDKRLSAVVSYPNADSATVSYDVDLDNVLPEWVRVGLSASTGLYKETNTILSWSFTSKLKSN

B1: FimA (protein)
chain: AATTVNGGTVHFKGEVVNAACAVDAGSVDQTVQLGQVRTASLAQEGATSSAVGFNIQLNDCDTNVASKAAVAFLGTAIDAGHTNVLALQSSAAGSATNVGVQILDRTGAALTLDGATFSSETTLNNGTNTIPFQARYFATGAATPGAANADATFKVQYQ
Usually Kd stands for the constant that tells how readily two partners part at equilibrium. B1: the equilibrium dissociation constant (Kd) was ~40 µM.
